In patent publication US10793871B2, “Nucleic acid molecule encoding glei protein variant with increased phytic acid sensitivity and use thereof” (University-Industry Foundation, Yonsei University, priority 2015, dated 2020):
Values belong to the molecule of their own block, whether it stands above or below them.

Key:
LOS4 ATPase [1] = test: Steady-state ATPase assay of LOS4-His; format: biochemical, Arabidopsis thaliana
Method: (§1) A steady-state ATPase assay was performed as described by Alcázar-Román et al. (Inositol hexakisphosphate and Gle1 activate the DEAD-box protein Dbp5 for nuclear mRNA export. Nat. Cell Biol. 8: 711-716, 2006) with slight modifications. The ATPase assay was performed with a LOS4-His protein in a 96-well plate using a buffer containing 20 mM HEPES (pH 7.5), 150 mM NaCl, 3 mM MgCl2, 1 mM DTT, 2 mM ATP, 6 mM phosphoenolpyruvate, 1.2 mM NADH, 1 mg/ml BSA and 2% (v/v) pyruvate kinase/lactate dihydrogenase (Sigma-Aldrich) in a total volume of 100 μl. Polyadenylic acid was added at 50 μg/ml or different concentrations as described above. Absorbance at 340 nm was measured using a VersaMax absorbance microplate reader (Molecular Devices), and the data were analyzed using SoftMax Pro software (Molecular Devices).
(§2) Gle1 and Gle1C (aa residues 244-611) were cloned into a pMAL C2X vector (New England Biolabs) for MBP fusion, LOS4 was cloned into a pET-29a vector for His fusion. MBP-Gle1 and MBP-Gle1C proteins were expressed in a BL21 (DE3) strain, and LOS4-His proteins were expressed in a Rosseta (DE3) strain of Escherichia coli. Cells were grown at 37° C. to an A600 of 0.4, shifted to 16° C., and induced by 0.25 mM IPTG for 16 hours. The MBP- and His-fusion proteins were purified following the manufacturer's introductions using MBP Excellose (Bioprogen) and His60 Ni Superflow™ resin (Clontech), respectively.

Dbp5 ATPase = biological target: T1, Dbp5 ATPase (Saccharomyces cerevisiae, UniProt P20449+Q12315); details: yeast; InsP6 100 nM added to Gle1 and RNA; cited from earlier work
T1 sequence (P20449 1-482): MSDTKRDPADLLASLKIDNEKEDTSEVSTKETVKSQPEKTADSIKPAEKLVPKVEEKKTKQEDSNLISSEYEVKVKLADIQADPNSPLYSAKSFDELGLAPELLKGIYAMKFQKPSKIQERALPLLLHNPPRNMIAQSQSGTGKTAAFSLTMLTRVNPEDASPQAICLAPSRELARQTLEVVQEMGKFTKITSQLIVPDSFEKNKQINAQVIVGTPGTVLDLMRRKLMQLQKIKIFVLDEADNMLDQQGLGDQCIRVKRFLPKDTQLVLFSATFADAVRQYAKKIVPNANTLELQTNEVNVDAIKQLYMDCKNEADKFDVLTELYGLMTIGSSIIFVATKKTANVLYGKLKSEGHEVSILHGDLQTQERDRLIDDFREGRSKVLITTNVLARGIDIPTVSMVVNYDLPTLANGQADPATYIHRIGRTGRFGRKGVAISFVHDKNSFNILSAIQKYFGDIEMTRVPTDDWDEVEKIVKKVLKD
T1 sequence (Q12315 1-538): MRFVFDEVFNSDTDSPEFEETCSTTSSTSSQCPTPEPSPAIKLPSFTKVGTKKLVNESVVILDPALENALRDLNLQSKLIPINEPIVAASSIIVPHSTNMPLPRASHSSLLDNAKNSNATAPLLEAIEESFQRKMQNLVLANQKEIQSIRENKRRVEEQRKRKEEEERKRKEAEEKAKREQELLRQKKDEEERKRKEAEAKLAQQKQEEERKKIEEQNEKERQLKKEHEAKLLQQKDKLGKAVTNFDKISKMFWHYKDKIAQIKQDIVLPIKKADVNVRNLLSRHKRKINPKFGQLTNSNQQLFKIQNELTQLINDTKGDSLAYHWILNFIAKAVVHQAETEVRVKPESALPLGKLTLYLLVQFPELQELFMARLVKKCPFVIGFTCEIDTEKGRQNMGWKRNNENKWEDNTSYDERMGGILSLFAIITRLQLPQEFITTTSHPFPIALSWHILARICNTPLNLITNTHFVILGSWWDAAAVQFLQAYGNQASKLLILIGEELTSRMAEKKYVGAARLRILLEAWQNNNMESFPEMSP

LOS4 ATPase [2] = biological target: T2, LOS4 ATPase (Arabidopsis thaliana, UniProt Q0WPZ7); test: Steady-state ATPase assay of LOS4-His; format: biochemical; details: MBP-Gle1C alone (2 μM), without LOS4
T2 construct: LOS4 was cloned into a pET-29a vector for His fusion; made in house; host or cells: Escherichia coli Rosetta (DE3) for LOS4-His; BL21 (DE3) for MBP-Gle1C
T2 sequence (Q0WPZ7 244-611): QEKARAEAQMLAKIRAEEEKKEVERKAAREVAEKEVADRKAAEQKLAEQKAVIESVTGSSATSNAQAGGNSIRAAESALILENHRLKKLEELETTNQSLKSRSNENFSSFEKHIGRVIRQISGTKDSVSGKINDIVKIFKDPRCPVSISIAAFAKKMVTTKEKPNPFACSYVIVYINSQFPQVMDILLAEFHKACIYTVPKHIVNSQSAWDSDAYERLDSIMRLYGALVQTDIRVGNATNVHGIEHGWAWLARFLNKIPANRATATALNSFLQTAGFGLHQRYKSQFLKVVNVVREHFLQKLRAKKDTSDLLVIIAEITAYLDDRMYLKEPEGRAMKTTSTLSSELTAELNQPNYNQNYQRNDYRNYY
Method: as §1, §2

additional increase in LOS4 activity by InsP6 (LOS4 ATPase [1]; InsP6 10 μM added to Gle1 and RNA (FIG. 5B)): 30% | increase of LOS4 ATPase activity (LOS4 ATPase [1]; LOS4-His 1 μM, ATP 2 mM, RNA 50 μg/ml, MBP-Gle1 2 μM plus 10 μM InsP6): > 4 fold
Molecule: O=P(O)(O)O[C@H]1[C@H](OP(=O)(O)O)[C@@H](OP(=O)(O)O)[C@H](OP(=O)(O)O)[C@@H](OP(=O)(O)O)[C@H]1OP(=O)(O)O [InsP6, Myo-inositol-1,2,3,4,5,6-hexakisphosphate, reference compound]
additional increase in Dbp5 ATPase activity (Dbp5 ATPase): 3- to 4 fold

increase in the overall catalytic rate of LOS4 (LOS4 ATPase [1]; LOS4-His 1 μM with MBP-Gle1C 2 μM vs LOS4-His alone): approximately two-fold | InsP6 concentration at which LOS4-stimulating activity increases above basal (LOS4 ATPase [1]; with RNA, InsP6 0-100 μM): 1 µM | InsP6 concentration giving maximum LOS4-stimulating activity (LOS4 ATPase [1]; with RNA, InsP6 0-100 μM): 10 µM | InsP6 concentrations at which only basal LOS4-stimulating activity is maintained (LOS4 ATPase [1]; with RNA, InsP6 0-100 μM): 1 to 100 nM
B1: MBP-Gle1C: MBP fusion protein of the carboxyl-terminal domain of Gle1 (amino acid residues 244-611), wild type (protein)
chain: T2 sequence (Q0WPZ7 244-611)
intrinsic ATPase activity (LOS4 ATPase [2]): did not show intrinsic ATPase activity | LOS4-His ATPase activity on addition of increasing amounts of protein (LOS4 ATPase [1]; 0-4 μM MBP-Gle1C, 1 μM LOS4-His, 2 mM ATP, RNA (FIG. 4C)): activated LOS4-His ATPase activity in a concentration-dependent manner | stimulation of LOS4 ATPase activity in the absence of InsP6 (LOS4 ATPase [1]; 1 μM LOS4-His, 2 mM ATP, RNA, 2 μM MBP-Gle1C or variant, no InsP6): activated LOS4 ATPase activity to similar degrees | apparent kcat of LOS4-His (LOS4 ATPase [1]; LOS4-His (1 μM) with MBP-Gle1C (2 μM), 0-2 mM ATP): 0.565 s⁻¹ | maximal increase in LOS4 ATPase activity with RNA (LOS4 ATPase [1]; LOS4-His:MBP-Gle1C 1:2, addition of RNA (polyadenylic acid) at different concentrations): ~3 fold
